Consider 25 sequences from the Immune Epitope Database (IEDB).

The target of experiment [1] is HLA-A*24:02. The experiment in a line: IEDB peptide-MHC binding, purified MHC/competitive/fluorescence; ≥ and ≤ were set here for values at or beyond the usual limits of such assays.
In experiment [2] the target is HLA-A*01:01. The experiment is described as follows: IEDB peptide-MHC binding, purified MHC/competitive/radioactivity; filed as Kd, often an IC50 or EC50 that approximates it; ≥ and ≤ were set here for values at or beyond the usual limits of such assays.
Experiment [3] addresses HLA-A*23:01. The description is as above.
For experiment [4], the target named is HLA-A*24:02. Described as above.
In experiment [5] the target is HLA-A*26:01. Described as above.
The target of experiment [6] is HLA-A*29:02. The description is as above.
Experiment [7] deals with HLA-A*30:02. The description is as above.
For experiment [8], the target named is HLA-A*03:01. Described as above. The conditions noted are these: source organism: Vaccinia virus WR.
Experiment [9] deals with HLA-A*11:01. The description is as above. The conditions noted are these: source organism: Vaccinia virus WR.
In experiment [10] the target is HLA-A*31:01. Described as above. The conditions noted are these: source organism: Vaccinia virus WR.
For experiment [11], the target named is HLA-A*33:01. The description is as above. The settings on record: source organism: Vaccinia virus WR.
For experiment [12], the target named is HLA-A*68:01. The experiment is described as above. The settings on record: source organism: Vaccinia virus WR.
The target in experiment [13] is HLA-A*26:01. The experiment in a line: IEDB peptide-MHC binding, purified MHC/direct/fluorescence; filed as Kd, often an IC50 or EC50 that approximates it; ≥ and ≤ were set here for values at or beyond the usual limits of such assays.
Experiment [14] deals with HLA-A*02:01. The experiment is described as follows: IEDB peptide-MHC binding, purified MHC/competitive/fluorescence; ≥ and ≤ were set here for values at or beyond the usual limits of such assays. The settings on record: source organism: Sudan ebolavirus.
For experiment [15], the target named is HLA-B*40:01. The experiment is described as follows: IEDB peptide-MHC binding, purified MHC/competitive/radioactivity; filed as Kd, often an IC50 or EC50 that approximates it; ≥ and ≤ were set here for values at or beyond the usual limits of such assays.
The mark [16] stands for this setting: source organism: Sudan ebolavirus.
The mark [17] stands for this setting: source organism: SARS coronavirus Tor2.
The mark [18] stands for this setting: source organism: Mammarenavirus whitewaterense.
The mark [19] stands for this setting: source organism: Vaccinia virus WR.
The mark [20] stands for this setting: source organism: Zaire ebolavirus.
The mark [21] stands for this setting: source organism: Dengue virus 2 Jamaica/1409/1983.
Setting [22] is: source organism: Mammarenavirus juninense.
Where [23] appears, read: source organism: Dengue virus 1 Brazil/97-11/1997.
[24] abbreviates: source organism: Mammarenavirus brazilense.

For AEGVIAFLI, in experiment [1] (setting [16]), the IC50 (commonly the concentration needed to halve the response being measured) worked out at 0.441 µM.

As to DSFKEELDKY, the Kd (usually a measure of binding affinity in units of concentration) is 0.754 µM in [2] (setting [17]); not below 70 µM in [3] (setting [17]); not below 70.3 µM in [4] (setting [17]); 0.416 µM in experiment [5] (setting [17]); 0.399 µM in experiment [6] (setting [17]); 0.299 µM in experiment [7] (setting [17]).

DYRHYSASF: the Kd in [2] (setting [17]) is not below 41.8 µM; in [3] (setting [17]), 0.0887 µM; in [4] (setting [17]) it was 0.215 µM; in experiment [5] (setting [17]) it was 7.41 µM; in [6] (setting [17]), 0.0257 µM; in experiment [7] (setting [17]), 4.34 µM.

EGCPKPHRL: the Kd in experiment [2] (setting [18]) was 13.9 µM; in [3] (setting [18]), not below 77.7 µM; in experiment [4] (setting [18]), not below 46.8 µM; in experiment [5] (setting [18]) it was not below 77.9 µM; in [6] (setting [18]) it was not below 43.7 µM; in experiment [7] (setting [18]) it was 12.4 µM.

In the case of EKEFLRYLL, in experiment [1] (source organism: Vaccinia virus), the IC50 is not below 116 µM.

Take ESRPFDLIKK: the Kd was 0.236 µM in experiment [8]; 0.0742 µM in [9]; not below 71.4 µM in [6] (setting [19]); 0.257 µM in experiment [10]; 1 µM in [11]; 0.00214 µM in [12].

EYTYPDSLE came in with an IC50 in [1] (setting [20]) not below 190 µM.

As to FVLALLAFF, the Kd in experiment [13] (source organism: West Nile virus) was not below 20 µM.

Regarding GMEAQFLYLY, the Kd is 0.181 µM in experiment [2] (setting [17]); not below 46.4 µM in experiment [3] (setting [17]); not below 57.4 µM in [4] (setting [17]); 12.3 µM in [5] (setting [17]); 0.0287 µM in experiment [6] (setting [17]); 0.147 µM in [7] (setting [17]).

Take GYQPYRVVVL: the Kd in experiment [2] (setting [17]) was not below 70.4 µM; in experiment [3] (setting [17]), 0.0534 µM; in experiment [4] (setting [17]) it was 0.201 µM; in experiment [5] (setting [17]), not below 69.7 µM; in experiment [6] (setting [17]), 1.23 µM; in experiment [7] (setting [17]), not below 78.9 µM.

In the case of HISRQRLTKY, the Kd in experiment [2] (setting [17]) was 12.1 µM; in [3] (setting [17]) it was not below 70 µM; in experiment [4] (setting [17]), not below 70.3 µM; in [5] (setting [17]), 1.16 µM; in [6] (setting [17]), 1.02 µM; in experiment [7] (setting [17]) it was 0.581 µM.

For the sequence HTKKEMRSF, the Kd in experiment [13] (source organism: Bacillus cereus NVH0597-99) was 0.015 µM.

In the case of HWVPTSRTTW, the results for the Kd in experiment [3] (setting [21]) and in [4] (setting [21]) were 0.734 µM and 0.603 µM, respectively.

With IAWIPYFGP, the results for the IC50 in experiment [14] and in experiment [1] (setting [16]) were 26.9 µM and 55.8 µM, respectively.

For the sequence IEAGRTLRVL, in experiment [15] (setting [21]), the Kd is 0.17 µM.

On to IENSTANVSL, for which the Kd in experiment [15] (source organism: Dengue virus 3 Martinique/1243/1999) is 0.00606 µM.

Sequence ISHRPVVLT came in with an IC50 in [1] (source organism: Variola virus) of 1.37 µM.

For IVNAQPKCN, the IC50 in [1] (setting [20]) was found to be 8.88 µM.

For KWADNNCYL, the Kd in experiment [2] (setting [17]) is not below 78.1 µM; in experiment [3] (setting [17]) it was 3.41 µM; in experiment [4] (setting [17]), 4.92 µM; in experiment [5] (setting [17]), not below 77.9 µM; in experiment [6] (setting [17]) it was not below 83.3 µM; in experiment [7] (setting [17]) it was not below 78.9 µM.

As for LDHVNTLHF, the Kd was 19.5 µM in experiment [2] (setting [22]); 5.07 µM in experiment [3] (setting [22]); 10.5 µM in experiment [4] (setting [22]); not below 77.9 µM in experiment [5] (setting [22]); not below 63.8 µM in experiment [6] (setting [22]); not below 46.5 µM in experiment [7] (setting [22]).

LEENVEVEI: the Kd in experiment [15] (setting [21]) was 0.0109 µM.

Consider LEIGKLPQHL, for which the Kd in experiment [15] (setting [23]) came to 0.145 µM.

In the case of LGYCMIRWL, the IC50 in experiment [1] (setting [19]) was not below 78.9 µM.

Turning to LWEGSPGKFW, in [3] (setting [23]), the Kd stood at 2.25 µM.

For the sequence LWEKLCYLI, the Kd is 0.265 µM in experiment [3] (setting [24]), 2.88 µM in experiment [4] (setting [24]) and 4.44 µM in [6] (setting [24]).
